Measured values taken from patent US20110071077A1, “Thrombopoietic Compounds” (AMGEN INC., priority 2006, published 2011).
Bridge positions count the residues as written; N and C are the ends. Ends that are not written are not given here. PEG = not defined here

Columns and labels:
[1] = biological target: T1, human mpl receptor (Homo sapiens, UniProt P40238); experiment: TPO in vitro bioassay, mitogenic assay in IL-3 dependent murine 32D cells; assay type: cell-based; conditions: for Relative Potency: in terms of EC50, numerals indicate approximately 1 log of activity
T1 construct: IL-3 dependent clone of murine 32D cells transfected with the full-length c-Mpl; expressed in transfected cells; host or cells: IL-3 dependent clone of murine 32D cells
T1 sequence (P40238 26-635): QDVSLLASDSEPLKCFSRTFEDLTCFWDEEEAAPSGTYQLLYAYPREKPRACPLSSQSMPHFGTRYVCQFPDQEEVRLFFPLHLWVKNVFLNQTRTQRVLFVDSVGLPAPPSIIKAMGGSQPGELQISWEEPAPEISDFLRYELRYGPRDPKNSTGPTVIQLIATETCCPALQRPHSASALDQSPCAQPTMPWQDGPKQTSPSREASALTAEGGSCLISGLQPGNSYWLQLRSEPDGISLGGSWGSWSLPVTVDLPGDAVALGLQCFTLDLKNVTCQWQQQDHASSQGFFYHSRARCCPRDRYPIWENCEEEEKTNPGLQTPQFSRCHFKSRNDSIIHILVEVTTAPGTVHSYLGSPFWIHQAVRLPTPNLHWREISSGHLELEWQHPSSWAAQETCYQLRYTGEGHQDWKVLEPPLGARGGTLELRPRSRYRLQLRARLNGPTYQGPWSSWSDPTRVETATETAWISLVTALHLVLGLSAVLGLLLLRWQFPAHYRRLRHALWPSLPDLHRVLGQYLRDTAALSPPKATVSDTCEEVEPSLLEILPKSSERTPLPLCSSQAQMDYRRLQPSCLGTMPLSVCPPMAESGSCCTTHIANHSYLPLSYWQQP
Description: Bioactivity assay. The TPO in vitro bioassay is a mitogenic assay utilizing an IL-3 dependent clone of murine 32D cells that have been transfected with human mpl receptor. This assay is described in greater detail in WO 95/26746. Cells are maintained in MEM medium containing 10% Fetal Clone II and 1 ng/ml mIL-3. Prior to sample addition, cells are prepared by rinsing twice with growth medium lacking mIL-3. An extended twelve point TPO standard curve is prepared, ranging from 3333 to 39 pg/ml. Four dilutions, estimated to fall within the linear portion of the standard curve, (1000 to 125 pg/ml), are prepared for each sample and run in triplicate. A volume of 100 μl of each dilution of sample or standard is added to appropriate wells of a 96 well microtiter plate containing 10,000 cells/well. After forty-four hours at 37° C. and 10% CO2, MTS (a tetrazolium compound which is bioreduced by cells to a formazan) is added to each well. Approximately six hours later, the optical density is read on a plate reader at 490 nm. A dose response curve (log TPO concentration vs. O.D.-Background) is generated and linear regression analysis of points which fall in the linear portion of the standard curve is performed. Concentrations of unknown test samples are determined using the resulting linear equation and a correction for the dilution factor. […]

[2] = biological target: T2, c-Mpl (Homo sapiens, UniProt P40238); conditions: cited from earlier work
T2 sequence (P40238 26-491 limits assumed): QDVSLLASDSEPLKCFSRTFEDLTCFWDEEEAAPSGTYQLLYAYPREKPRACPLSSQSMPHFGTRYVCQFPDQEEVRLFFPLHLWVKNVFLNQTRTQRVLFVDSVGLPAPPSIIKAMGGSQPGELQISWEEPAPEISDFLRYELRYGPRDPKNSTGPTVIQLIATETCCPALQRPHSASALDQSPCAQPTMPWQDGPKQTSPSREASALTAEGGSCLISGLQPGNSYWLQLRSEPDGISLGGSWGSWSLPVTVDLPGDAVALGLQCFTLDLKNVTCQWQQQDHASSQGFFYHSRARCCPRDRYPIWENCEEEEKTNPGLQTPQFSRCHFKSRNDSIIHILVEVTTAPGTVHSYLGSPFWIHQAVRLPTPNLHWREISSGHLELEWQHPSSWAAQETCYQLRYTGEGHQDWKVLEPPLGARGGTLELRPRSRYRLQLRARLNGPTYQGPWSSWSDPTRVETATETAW

[3] = biological target: T3, c-Mpl receptor (Homo sapiens, UniProt P40238); conditions: cited from earlier work
T3 sequence (P40238 26-635): T1 sequence (P40238 26-635)

[4] = system: Normal female BDF1 mice; experiment: platelets in mice, 7-day micro-osmotic pumps; assay type: in vivo
Description: Mice. Normal female BDF1 approximately 10-12 weeks of age.
Bleed schedule. Ten mice per group treated on day 0, two groups started 4 days apart for a total of 20 mice per group. Five mice bled at each time point, mice were bled a minimum of three times a week. Mice were anesthetized with isoflurane and a total volume of 140-160 μl of blood was obtained by puncture of the orbital sinus. Blood was counted on a Technicon H1E blood analyzer running software for murine blood. Parameters measured were white blood cells, red blood cells, hematocrit, hemoglobin, platelets, neutrophils.
Treatments. Mice were either injected subcutaneously for a bolus treatment or implanted with 7 day micro-osmotic pumps for continuous delivery. Subcutaneous injections were delivered in a volume of 0.2 ml. Osmotic pumps were inserted into a subcutaneous incision made in the skin between the scapulae of anesthetized mice. Compounds were diluted in PBS with 0.1% BSA. All experiments included one control group, labeled “carrier” that were treated with this diluent only. The concentration of the test articles in the pumps was adjusted so that the calibrated flow rate from the pumps gave the treatment levels indicated in the graphs.
Compounds. A dose titration of the compound was delivered to mice in 7 day micro-osmotic pumps. Mice were treated with various compounds at a single dose of 100 ug/kg in 7 day osmotic pumps. Some of the same compounds were then given to mice as a single bolus injection.

Substance	Relative Potency [1]	in vitro bioactivity in words [1]	further results
IEGPTLRQWLAARAARAALWQRLTPGEI [TMP C-C dimer, reference compound]	3.5	lower than that of the native TPO protein	binding affinity [2]: 0.5 nM; EC50 [3]: 0.1 nM
TMP-GGGC(PEG)GGGG-TMP (IEGPTLRQWLAARAGGGC(PEG)GGGGIEGPTLRQWLAARA; reading uncertain) [peptide 20]	5.0	even higher in vitro bioactivity as compared to their unpegylated counterparts	activity compared with unpegylated rHu-MGDF ([4]; 10 μg/kg/day): about equally active as 100 μg/kg/day unpegylated rHu-MGDF; activity relative to maximum ([4]; 10 μg/kg/day): about 50%; dose of maximum effect ([4]; dose response, data not shown): 100 µg/kg/day; lowest dose at which activity could be seen ([4]; mouse, in vivo): 1 µg/kg/day
IEGPTLRQALAARA-GGGGGGGG-IEGPTLRQALAARA (IEGPTLRQALAARAGGGGGGGGIEGPTLRQALAARA) [peptide 16]	0.5	inactive	
IEGPTLRQCLAARA-GGGGGGGG-IEGPTLRQCLAARA (IEGPTLRQCLAARAGGGGGGGGIEGPTRLQCLAARA) [compound 15]	0.5	inactive	
TMP-GGGK(PEG)GGGG-TMP (IEGPTLRQWLAARAGGGK(PEG)GGGGIEGPTLRQWLAARA; reading uncertain) [peptide 19]	5.0	even higher in vitro bioactivity as compared to their unpegylated counterparts	

Second part, led by results:

Relative Potency [1]	Substance	in vitro bioactivity in words [1]	further results
4.0	TMP-GGGKGGGG-TMP (IEGPTLRQWLAARAGGGKGGGGIEGPTLRQWLAARA) [peptide 17a]		
4.0	TMP-GGGCGGGG-TMP (IEGPTLRQWLAARAGGGCGGGGIEGPTLRQWLAARA) [peptide 18]		
0.5	peptide 14: Trp in each TMP monomer replaced with Cys, intramolecular disulfide bond between the two cysteines (IEGPTLRQCLAARAGGGGGGGGIEGPTLRQCLAARA; disulfide 9-31)	inactive	
1.0	IEGPTLRQWLAARA [TMP monomer, 14-residue TPO Mimetic Peptide (Cwirla et al.)]		IC50 [2]: 2 nM; EC50 [3]: 400 nM
4.0	TMP-GGGNGSGG-TMP (IEGPTLRQWLAARAGGGNGSGGIEGPTLRQWLAARA) [compound 21]	activity comparable to that of the -(Gly)8- linked analog	
4.0	TPO: native TPO protein, endogenous thrombopoietin		
3.0	TMP-GPNG-TMP (IEGPTLRQWLAARAGPNGIEGPTLRQWLAARA) [peptide 13]		increase in potency as compared to the monomer [1]: about 100 fold
